In patent publication US9266964:

B1: M9-D08 (Fab, V domains shown)
VH: EVQLLESGGGLVQPGGSLRLSCAASGFTFSWYKMMWVRQAPGKGLEWVSSIYPSGGWTNYADSVKGRFTISRDNSKNTLYLQMNSLRAEDTAVYYCTRGSPWGDDAFDIWGQGTMVTVSS
VL: DIQMTQSPSSLSASVGDRVTLTCRASRTISFYLNWYQQKAGKAPELLIYGGSSLHSGVPSRFSGSGSGTDFSLTISNLQPEDIAVYYCQQSFSSPWTFGQGTKVEIK
notes: Fab fragment (E. coli TG1); printed HC runs into the start of CH1
B2: M11-A10 (Fab, V domains shown)
VH: EVQLLESGGGLVQPGGSLRLSCAASGFTFSNYWMMWVRQAPGKGLEWVSGIGSSGGFTSYADSVKGRFTISRDNSKNTLYLQMNSLRAEDTAVYYCAKGSYSDYGVFESWGQGTLVTVSS
VL: DIQMTQSPSSLSASVGDRVAITCRASQSIDTYLNWYQQKPGKAPKLLIYDASNLEIGVPSRFSGSGSGTDFTFIINSLQPEDVATYYCQHYLYAPYSFGQGTKLEIK
notes: as for B1
B3: M10-B09 (Fab, V domains shown)
VH: EVQLLESGGGLVQPGGSLRLSCAASGFTFSWYEMSWVRQAPGKGLEWVSRIWPSGGVTMYADSVKGRFTISRDNSKNTLYLQMNSLRAEDTAVYYCTRTSITTVGMDVWGQGTTVTVSS
VL: DIQMTQSPSSLSASVGDGVTITCRASQSISTYLNWYQQRPGKAPKLLIYGASSLQSGVPSRFSGSGSGTDFTLTISSLQREDFATYYCQQSFSTPWTFGQGTRVEIK
notes: Fab fragment (E. coli TG1); printed HC runs into the start of CH1; The HC is printed with an amber codon 'q' (LqMNSL), written here as Q
B4: M9-G08 (Fab, V domains shown)
VH: EVQLLESGGGLVQPGGSLRLSCAASGFTFSYYTMLWVRQAPGKGLEWVSSIYPSGGFTMYADSVKGRFTISRDNSKNTLYLQMNSLRAEDTAVYYCARVDTAMAMIDYWGQGTLVTVSS
VL: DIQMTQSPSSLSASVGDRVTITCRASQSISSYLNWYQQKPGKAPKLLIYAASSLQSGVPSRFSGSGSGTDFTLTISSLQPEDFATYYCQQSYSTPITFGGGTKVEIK
notes: as for B1
B5: M9-H02 (Fab, V domains shown)
VH: EVQLLESGGGLVQPGGSLRLSCAASGFTFSAYMMIWVRQAPGKGLEWVSVIYPSGGVTMYADSVKGRFTISRDNSKNTLYLQMNSLRAEDTAVYYCARGTVGASDAFDIWGQGTMVTVSS
VL: DIQMTQSPSSLSASVGDRVIITCRASRSIATYLNWYQQKPGKAPNLLIFGASTLQSGVPSRFSGSGSGTDFTLTISDLQPEDFATYYCQQSFSDPYTFGQGTNLEMK
notes: as for B1
B6: M9-H03 (Fab, V domains shown)
VH: EVQLLESGGGLVQPGGSLRLSCAASGFTFSWYSMGWVRQAPGKGLEWVSYIVPSGGYTMYADSVKGRFTISRDNSKNTLYLQMNSLRAEDTAVYYCARDPGVSYYYYGMDVWGQGTTVTVSS
VL: QYELTQAPSVSVAPGQTASITCSGDKLGNRYTSWYQQKPGQSPVLVIFQDNKRPSGIPERFSGSNSGNTATLTISGTQAMDEADYYCQALDSNTYVFGTGTKVTVL
notes: as for B1
B7: M11-E01 (Fab, V domains shown)
VH: EVQLLESGGGLVQPGGSLRLSCAASGFTFSTYEMYWVRQAPGKGLEWVSGIGSSGGMTMYADSVKGRFTISRDNSKNTLYLQMNSLRAEDTAMYYCAREQPGIAALQFWGQGTLVTVSS
VL: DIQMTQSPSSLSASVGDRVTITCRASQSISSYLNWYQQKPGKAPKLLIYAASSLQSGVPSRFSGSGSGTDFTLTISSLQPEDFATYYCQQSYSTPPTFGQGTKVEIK
notes: as for B1
B8: M10-C11 (Fab, V domains shown)
VH: EVQLLESGGGLVQPGGSLRLSCAASGFTFSMYPMMWVRQAPGKGLEWVSYISPSGGMTDYADSVKGRFTISRDNSKNTLYLQMNSLRAEDMAVYYCARVAGSSDAFDIWGQGTMVTVSS
VL: DIQMTQSPSSLSASVGDRVTITCRASQSISIYLNWYQQKPEKAPKLLIFAASTLQSGVPSRFSGSGSGTDFTLTISNLQPEDFATYYCQQSHSIPPTFGLGTKVEVK
notes: as for B1
B9: M9-C10 (Fab, V domains shown)
VH: EVQLLESGGGLVQPGGSLRLSCAASGFTFSLYPMQWVRQAPGKGLEWVSSIGSSGGMTFYADSVKGRFTISRDNSKNTLYLQMNSLRAEDTAVYYCTREVGAAGFAFDIWGQGTMVTVSS
VL: DIQMTQSPSSLSASVGDRVTITCRASQGISSYLNWYQQKPGNAPNLLIYGASSLQSGVPSRFSGSGSGTDFTLTISSLQPEDFATYYCQESYSTLFTFGPGTTVEIK
notes: as for B1
B10: M10-F09 (Fab, V domains shown)
VH: EVQLLESGGGLVQPGGSLRLSCAASGFTFSNYDMMWVRQAPGKGLEWVSYISPSGGFTRYADSVKGRFTISRDNSKNTLYLQMNSLRAEDTATYYCAKDIYYYNWGPSHYFDSWGQGTLVTVSS
VL: DIQMTQSPSSLSASVGDRVTITCRASQTIDDDLIWYQQKPGRAPKLLIYAASSLQSGVPSRFSGSGSGTDFTLTITSLQPEDFATYYCQQSYNIPRTFGQGTKLESK
notes: as for B1
B11: M10-D11 (Fab, V domains shown)
VH: EVQLLESGGGLVQPGGSLRLSCAASGFTFSAYPMNWVRQAPGKGLEWVSRISSSGGNTSYADSVKGRFTISRDNSKNTLYLQMNSLRAEDTAVYYCALGYLGYWGQGTLVTVSS
VL: not shown
notes: as for B1
B12: M10-E06 (Fab, V domains shown)
VH: EVQLLESGGGLVQPGGSLRLSCAASGFTFSLYRMFWVRQAPGKGLEWVSSIWSSGGPTMYADSVKGRFTISRDNSKNTLYLQMNSLRAEDTAVYYCAREYPSTYYFDYWGQGTLVTVSS
VL: DIQMTQSPSSLSASVGDRVTITCRASQSISTYLNWYQQKPGKAPKLLIYGASSLQSGVPSRFSGSGSGTDFTLTISSLQPEDFTIYYCQQSYSDPYTFGQGTKLDIK
notes: as for B1
B13: M9-F10 (Fab, V domains shown)
VH: EVQLLESGGGLVQPGGSLRLSCAASGFTFSDYDMEWVRQAPGKGLEWVSSISPSGGSTIYADSVKGRFTISRDNSKNTLYLQMNSLRAEDTAVYYCARQGLLTAFDIWGQGTMVTVSS
VL: DIQMTQSPSSLSASVGDRVTITCRASQSINTYLNWYQQKPGKAPKVLIHAASTLESGVPSRFSGSGSGTDFTLTISSLQPEDFATYYCQQSYSTPYTFGQGTKLEVR
notes: as for B1
B14: M10-A03 (Fab, V domains shown)
VH: EVQLLESGGGLVQPGGSLRLSCAASGFTFSPYPMQWVRQAPGKGLEWVSSISSSGGMTEYADSVKGRFTISRDNSKNTLYLQMNSLRAEDTAVYYCARDDYGGKGGAFDIWGQGTMVTVSS
VL: DIQMTQSPSSLSASVGDRVTITCRASQRISFYLNWFQQKPGKAPNLLIYGASSLQSGVPSRFSGSGSGTDFTLTISSLQPKDFGTYYCQQTFSTPNTFGQGTKLEIK
notes: as for B1
B15: M9-C08 (Fab, V domains shown)
VH: EVQLLESGGGLVQPGGSLRLSCAASGFTFSHYGMVWVRQAPGKGLEWVSYIVPSGGLTYYADSVKGRFTISRDNSKNTLYLQMNSLRAEDTAVYYCARVDYTGDGLGYWGQGTLVTVSS
VL: DIQMTQSPSSLSASVGDRVTITCRASQSISIYVNWYQQKPGKAPNLLIFAASSLQRGVPSRFSGSGSGADFTLTISSLQPEDFATYYCQQSFSTPLTFGGGTKVEIK
notes: as for B1
B16: M9-E04 (Fab, V domains shown)
VH: EVQLLESGGGLVQPGGSLRLSCAASGFTFSEYDMMWVRQAPGKGLEWVSSIGSSGGMTYYADSVKGRFTISRDNSKNTLYLQMNSLRAEDTAVYYCARDQVAAAAIDYWGQGTLVTVSS
VL: DIQMIQSPSSLSASVGDRVTITCRASQSISGYLNWYQQRSGKAPKLLIFAASNLQTGVPSRFSGSGSGTDFTLTINNLQPEDFATYYCQQSHTPPKTFGPGTKVDIK
notes: as for B1
B17: M9-H04 (Fab, V domains shown)
VH: EVQLLESGGGLVQPGGSLRLSCAASGFTFSAYTMWWVRQAPGKGLEWVSSIWPSGGSTFYADSVKGRFTISRDNSKNTLYLQMNSLRAEDTAVYYCARTYDSSAGEVDYWGQGTLVTVSS
VL: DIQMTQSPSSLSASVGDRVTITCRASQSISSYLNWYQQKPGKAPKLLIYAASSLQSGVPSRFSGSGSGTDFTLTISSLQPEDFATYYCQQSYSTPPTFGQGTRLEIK
notes: as for B1
B18: M10-G09 (Fab, V domains shown)
VH: EVQLLESGGGLVQPGGSLRLSCAASGFTFSQYGMQWVRQAPGKGLEWVSSIRSSGGATRYADSVKGRFTISRDNSKNTLYLQMNSLRAEDTAVYYCARDGYYDSSGYPDYWGQGTLVTVSS
VL: DIQMTQSPSSLSASVGDSVTITCRASQSISGYINWYQQKAGKAPKLLIYAASSLQSGVPSRFSGSGSGTHFTLTISSLQPEDFATYYCQQYVSYPFTFGPGTKVDIK
notes: as for B1
B19: M10-A12 (Fab, V domains shown)
VH: EVQLLESGGGLVQPGGSLRLSCAASGFTFSLYLMHWVRQAPGKGLEWVSSIYSSGGFTTYADSVKGRFTISRDNSKNTLYLQMNSLRAEDTAVYYCARDTDYGMDVWGQGTTVTVSS
VL: DIQMTQSPLSLSAFVGDRVTITCRASRDISVYLNWYQLKSGKAPKLLIYGASSLQSGVPSRFSGSGSGTDFTLTITSLQPEDFATYYCQQSYSIPFTFGGGTKVETK
notes: as for B1
B20: M9-F09 (Fab, V domains shown)
VH: EVQLLESGGGLVQPGGSLRLSCAASGFTFSSYPMGWVRQAPGKGLEWVSRISSSGGMTIYADSVKGRFTISRDNSKNTLYLQMNSLRAEDTAVYYCARDDWNVGMDVWGQGTTVTVSS
VL: DIQMTQSPSSLSASVGDRVTITCRASQSISSYLNWYQQKPGKAPKLLIYAASSLQSGVPSKFSGSGSGTDYTLTISSLQPEDFATYYCQQTYTTPWTFGQGTKVEIK
notes: as for B1
B21: M9-F08 (Fab, V domains shown)
VH: EVQLLESGGGLVQPGGSLRLSCAASGFTFSPYAMTWVRQAPGKGLEWVSVIYPSGGFTDYADSVKGRFTISRDNSKNTLYLQMNSLRAEDTAMYYCARASGSYLDAFDIWGQGTMVTVSS
VL: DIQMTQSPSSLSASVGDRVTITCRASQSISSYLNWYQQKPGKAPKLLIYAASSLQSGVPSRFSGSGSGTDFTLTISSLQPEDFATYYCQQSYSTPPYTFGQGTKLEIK
notes: Fab fragment (E. coli TG1); printed HC runs into the start of CH1; The LC is printed with an amber codon 'q' (MTqSPS), written here as Q
B22: M9-A08 (Fab, V domains shown)
VH: EVQLLESGGGLVQPGGSLRLSCAASGFTFSAYEMWWVRQAPGKGLEWVSYIGSSGGSTSYADSVKGRFTISRDNSKNTLYLQMNSLRAEDTAVYYCTGGNSSSFDAFDIWGQGTMVTVSS
VL: DIQMTQSPSSLSASVGDRVTVTCRASQRISTYLNWYQQKPGKAPKLLISGASSLQSGVPSRFSGSGSGTDFTLTISSLQPDDFATYYCQQSYNTPRTFGQGTKVEIR
notes: as for B1

Each binder was assayed against T1, human plasma kallikrein (human, UniProt P03952 20-390; P03952 391-638) (assay: ELISA; signal on coated biotinylated human plasma kallikrein divided by signal on streptavidin; Fab).
T1 construct: two disulfide-linked chains; also called pKal; human pKal
T1 sequence (P03952 20-390, chain 1 of 2): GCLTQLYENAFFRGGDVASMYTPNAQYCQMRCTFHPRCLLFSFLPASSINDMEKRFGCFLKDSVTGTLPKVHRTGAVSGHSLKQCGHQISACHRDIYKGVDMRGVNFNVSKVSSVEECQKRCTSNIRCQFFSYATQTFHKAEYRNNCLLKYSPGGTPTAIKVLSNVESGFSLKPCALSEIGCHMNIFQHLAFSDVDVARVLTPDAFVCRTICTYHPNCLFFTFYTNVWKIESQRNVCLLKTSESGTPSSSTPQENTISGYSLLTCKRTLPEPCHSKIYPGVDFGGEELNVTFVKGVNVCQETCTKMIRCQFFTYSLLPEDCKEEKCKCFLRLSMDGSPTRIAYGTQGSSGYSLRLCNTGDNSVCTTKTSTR
T1 sequence (P03952 391-638, chain 2 of 2): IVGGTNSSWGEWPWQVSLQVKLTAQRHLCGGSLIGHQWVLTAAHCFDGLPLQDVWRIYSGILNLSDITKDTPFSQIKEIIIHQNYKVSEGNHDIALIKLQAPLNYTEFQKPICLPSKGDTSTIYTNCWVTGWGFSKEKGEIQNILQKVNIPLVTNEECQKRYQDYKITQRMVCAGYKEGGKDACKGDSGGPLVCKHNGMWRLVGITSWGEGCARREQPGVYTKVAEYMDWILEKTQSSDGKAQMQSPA
From the text: Abbreviations used: "T/B" is the ELISA signal obtained using of the target (biotinylated plasma kallikrein) divided by the ELISA signal of the "background" (streptavidin); both of which were coated on microtiter plates. "nd" is not determined. The symbol "q" refers to the amber suppressible stop codon (TAG), which is translated as glutamine (Q) in strains of E. coli such as the TG1 cells that were used to express the Fab fragments.
B1 was tested, and the “Human pKal ELISA (T/B)” value was 35.9 T/B (target signal / background signal).
In the case of B2, the “Human pKal ELISA (T/B)” value is reported as 25 T/B (target signal / background signal).
For B3, the “Human pKal ELISA (T/B)” value was 14.1 T/B (target signal / background signal).
B4 was tested, and the “Human pKal ELISA (T/B)” value was 4.8 T/B (target signal / background signal).
B5 was tested, and the “Human pKal ELISA (T/B)” value was 3.5 T/B (target signal / background signal).
With B6 the “Human pKal ELISA (T/B)” value was 4.4 T/B (target signal / background signal).
With B7 the “Human pKal ELISA (T/B)” value was 11.7 T/B (target signal / background signal).
B8 was tested, and the “Human pKal ELISA (T/B)” value was 5.3 T/B (target signal / background signal).
For B9, the “Human pKal ELISA (T/B)” value was 7.8 T/B (target signal / background signal).
With B10 the “Human pKal ELISA (T/B)” value was 4.8 T/B (target signal / background signal).
B11 was tested, and the “Human pKal ELISA (T/B)” value was 6.4 T/B (target signal / background signal).
With B12 the “Human pKal ELISA (T/B)” value was 32.8 T/B (target signal / background signal).
In the case of B13, the “Human pKal ELISA (T/B)” value is reported as 8.4 T/B (target signal / background signal).
B14 was tested, and the “Human pKal ELISA (T/B)” value was 33.7 T/B (target signal / background signal).
In the case of B15, the “Human pKal ELISA (T/B)” value is reported as 10.9 T/B (target signal / background signal).
B16 was tested, and the “Human pKal ELISA (T/B)” value was 18.8 T/B (target signal / background signal).
For B17, the “Human pKal ELISA (T/B)” value was 16.1 T/B (target signal / background signal).
B18 was tested, and the “Human pKal ELISA (T/B)” value was 7.1 T/B (target signal / background signal).
For B19, the “Human pKal ELISA (T/B)” value was 20.8 T/B (target signal / background signal).
B20 was tested, and the “Human pKal ELISA (T/B)” value was 7 T/B (target signal / background signal).
B21 was tested, and the “Human pKal ELISA (T/B)” value was 10.9 T/B (target signal / background signal).
B22 was tested, and the “Human pKal ELISA (T/B)” value was 5.5 T/B (target signal / background signal).
